Laboratory results taken from patent US11839630B2, “CAR-T cells targeting IL-1RAP and their use” (ETABLISSEMENT FRANCAIS DU SANG, priority 2017, dated 2023).

Assays:
[1] = tested on: HSCs; assay: IL-1RAP cell surface staining of healthy HSCs; assay type: binding, human
Protocol: FIG. 23: Effect of IL-1RAP CAR T cells on healthy hematopoietic cells and efficiency of the safety suicide gene iCASP9 cassette. (A) IL-1RAP cell surface expression on peripheral blood (left) or bone marrow (right) cells from healthy donors (n=5). SSC-A/CD45+ allowed discrimination of subpopulations as lymphocytes (SSC-A low), monocytes (CD33+), granulocytes (SSC-A high), or HSCs (CD33−/CD34+). RFI was calculated from isotype staining and provided in each window. (B) Representative (1 of 3) IL-1RAP staining of whole human cord blood cells. IL-1RAP staining is provided for whole CD34+, CD34+/CD38−, and CD34+/CD38+ HSC cord blood subpopulations. […] Percentages were calculated using absolute cell number determined using Trucount™ tubes based on 5000 fluorescent-bead cytometry acquisition. […] The quantification was performed after acquiring 5000 fluorescent beads. […] Cell killing was calculated as follows: % Dead cells=[1−(absolute number of viable cells in AP1903-treated cells/absolute number of viable cells in untreated cells)]×100. […] (G) Absolute quantification of IL-1RAP CAR T cells injected in a tumor (CML KU812, i.v.) xenograft NSG model 24 h after i.p. AP1903 (white bars) treatment (n=3 mice/group). […]

[2] = tested on: IL-1RAP+ leukemia expressing stem cells CD34+CD38+ or CD34+CD38-; assay: Flow cytometry immunophenotyping of primary cells from CML patients; assay type: binding, human; details: bone marrow or peripheral blood of patient at diagnosis or after 12 months of Imatinib
Source text: FIG. 3: Immunophenotyping on peripheral blood (PM) or bone marrow (BM) of 2 CML positive patients at diagnosis (Diag) or after Imatinib (IM) treatment. IL-1RAP (#E3C3) was used in combination with CD34+ and CD38− fluorescent staining. Fluorochrome-conjugated isotype control mAbs from the different mAbs were systematically used.
Hematopoietic stem cells from CML patients were tracked using a panel of CD45, CD34, CD38, CD33, CD133, CD117 including murine Alexa Fluor® 488 labelled IL-1RAP antibody clone #E3C3. Transduced cells were stained using a panel of antibodies including CD3, CD4, CD8, and CD19 in order to differentiate helper or cytotoxic GMTC. Naïve, central or memory T cells subsets were analyzed using a panel of CD45RA, CD62L, CD95, CCR7 monoclonal antibodies. Cells were collected using a FACSCANTO™ II cytometer (BD Biosciences, Le Pont de Claix, France) and analyzed using the DIVA 6.1 software (BD Biosciences, Le Pont de Claix, France).
Immunophenotyping on peripheral blood or bone marrow of 2 CML-positive patients without or after Imatinib (TKI) treatment has been performed. IL-1RAP (#E3C3) was used in combination with CD34^+ and CD38^− fluorescent staining. Fluorochrome-conjugated isotype control monoclonal antibodies from the different monoclonal antibodies were systematically used.

[3] = target: T1, IL-1RAP recombinant protein (Homo sapiens, UniProt Q9NPH3); assay: ELISA against recombinant IL-1RAP protein; assay type: binding; details: BSA negative control
T1 construct: recombinant fusion protein consisting of the extra cellular part of IL-1RAP (NM_002182.2, NCBI) and the Fc-part of human IgG1; purchased R&D Systems
T1 sequence (Q9NPH3 21-367 limits assumed): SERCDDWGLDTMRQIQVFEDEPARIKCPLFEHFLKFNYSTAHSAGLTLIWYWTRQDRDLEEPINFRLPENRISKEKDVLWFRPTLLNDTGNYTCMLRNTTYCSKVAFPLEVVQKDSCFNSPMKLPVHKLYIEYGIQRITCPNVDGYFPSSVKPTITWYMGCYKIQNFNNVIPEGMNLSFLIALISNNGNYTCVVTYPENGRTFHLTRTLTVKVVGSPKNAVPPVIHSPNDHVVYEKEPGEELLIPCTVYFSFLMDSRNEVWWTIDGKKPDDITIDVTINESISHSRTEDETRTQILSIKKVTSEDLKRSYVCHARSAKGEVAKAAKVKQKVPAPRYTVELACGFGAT
Source text: FIG. 2: recognition of IL-1RAP recombinant protein with #E3C3 mAb by the ELISA technique (b). BSA is the negative control (a).
Anti-human Fc antibody was coated on a bottom of a plastic ELISA plate.

B1: #E3C3: mouse anti-hIL-1RAP monoclonal antibody subclone generated by standard hybridoma technique; VH SEQ ID NO: 2, VL SEQ ID NO: 4 (antibody, V domains shown)
VH: MGWSCIILFLVATATGVNSQVQLQQPGAELMMPGASVKVSCEASGYTFTDSWMHWVKQRPGQGLEWIGAIDPSDSYTTYNQKFTGKATLSVDESSNTAYMQLSSLTSEDSAVYYCARYYSGSNYISPFPYWGQGTLVTVSA
VL: MESQIQVFVFVFLWLSGVDGDIVMTQSHKFMSTSVGDRVTITCKASLDVSTAVAWYQQKPGQSPKLLIYSASYRYTGVPDRFTGSGSGTDFTFTISSVQAEDLAVYYCQQHYSPPFTFGSGTNLEIK
modifications: Amino acid sequence of chain H (VH) of murine scFv anti-IL-1RAP; Amino acid sequence of chain K (VL) of murine scFv anti-IL-1RAP
For B1, which “detection of HSCs” value ([1]; bone marrow from healthy donors or normal cord blood) is on record?
The value was “did not detect”.

What about the “RFI of HSC staining” value ([1]; bone marrow from healthy donors, n=5) of the same molecule?
Its value is less than 1.2.

What about the “discrimination of IL-1RAP+ stem cell subpopulations” value [2] of the same molecule?
Its value is “allowed to discriminate IL-1RAP+ leukemia expressing stem cells”.

And the “recognition of IL-1RAP recombinant protein by ELISA” value [3]?
Its value is “recognize the IL-1RAP recombinant protein”.
